Experimental data taken from the RNAGym collection of RNA variant scans (doi:10.1073/pnas.2313332121).

B1: TPR t1 (parent)
chain: GACCAAUCUGCCCUCAGAGCUCGAGAACAUCUUCGGAUGCAGAGGAGGCAGGCUUCGGUGGCGCGAUAGCGCCAACGUCCUCAACCUCCAAUGCAUCCCACCACAUGAUGAUGCCUGAAGAGCCUUGGUUUUUUG

Variants of: B1
Experiment: polymerase ribozyme fitness, log enrichment relative to wild type (log ratio); higher = more active; in vitro selection for triplet polymerase activity
In short: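 Mutant libraries of both subunits of a heterodimeric triplet polymerase ribozyme were PCR-built, transcribed, and selected once in triplicate, with frozen incubation at −7 °C and capture of gel-excised extended constructs on streptavidin beads before RT-PCR. Illumina sequencing of input and output libraries was filtered to genotypes with ≥10 input reads and ≥1 read per output. Fitness is the logarithm of genotype enrichment over wild-type enrichment, using inverse-variance-weighted replicate averages. The logarithm is base 2.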

Variant | polymerase ribozyme fitness (log ratio)
A16U C72A | -1.32
A16U C73U A121C | 0.586
A16C C82U G110A C123G U132A | -4.33
C15U G93A | -1.99
U14G C56A G120C | -0.0635
C15U U132A | -0.984
C15U C62A C86U A111C U129G | -4.97
C15G A29G C64U C76G C99U U112A | -6.38
C15U C28A C72U C76G A121C | -3.19
A16C C123G | -0.273
C15U C72A A83C C89U C97U | -3.4
C15A G47U | -4.02
C15A U54A C56G C72A | -2.89
A16U G42U C53G G71A G120A | -2.89
U14C C53G A74C A83G C94U | -2.55
A16U C62G C123A | -3
C15U C28U A68G G110A | -2.39
C15U C76U A100U G120C | 0.0455
U14G C101G | -3.2
A16C G42A | -3.47
C15U C73U A74C | -1.46

Variant | polymerase ribozyme fitness (log ratio)
C15U C49A C72A U129C U134A G135C | -1.14
A16G G44A C97G U112C U133A | -4.45
U14G C101U U126G | -4.96
C15G C62A | -3.96
C15A G52U | -3.6
C15G A46G G71A C88G | -5.35
C15G C62U C79A A95G G117U | -1.98
C15G A66G G69C C89U | -5.99
C15A C56G | -3.39
A16U G47C C49U G61C C82G C89U A91G C115A | -7.61
U14C U67A G69A | -5.17
A16C C64G G69U C94G G110U | -4.25
C15G C49G G61A C85A G110A | -3.95
C15G A37C C73G G120C G128U | -4.14
A16U A37U G69U U106C G120U | -0.0765
U14G C56G A84U U106C G110U | -5.11
U14G G42C A46C C53U G61A | -4.45
C15U C62A C79A | -4.11
A16C C72A G110U | -3.99
C15G U96G G120A | -1.53
C15U U87A | -2.53

Variant | polymerase ribozyme fitness (log ratio)
U14G A43U C88G | -3.5
A16G G52A U116C | 0.826
C15A C70U G93C C124G G128C | -4.17
C15U G65A G69U U87G | -4.77
C15A G60U | -2.01
C15G A90C | -3.94
C15A G48C C70U | -3
C15U C79A | -2.26
U14G U21G C40A G48C U106A | -5.19
C15U G42A G48A C79U A105C U112A G113U C124A | -4.71
C15A C53U G63C | -2.5
C15U C28G G39U C124A U129G | -5.23
U14C G51U C104U | -4.54
A16G G77A C85G | -3.69
C15G G47U U55C U78C C82U C86A G120U | -2.18
A16C C89U U106A | -2.64
U14C C15U C73G | -3.76
U14G | -1.56
U14C | -1.23
C15U A18C | -3.52
A16G C40G | -0.424

Variant | polymerase ribozyme fitness (log ratio)
C15G C40U C56A C73U C80A C124G | -5.12
C15A G61A A83U G117C | -5.31
U14C G48U U54A | -2.87
A16G C70U C115A U125C | -2.39
C15U C34A G69C | -5.57
A16G C49A C88A C99A C102U C114U | -4.49
A16C C56G G77U C115G | -3.78
U14G G45A C102U | -5.41
U14G A37U C70U A74U U133G | -3.41
A16C C53U | -2.99
C15A U33A G117A | -5.68
C15G C98U A111G | -5.41
A16U C22U | -3.56
A16G C70A A95C | -4.17
A16U C123A | -1.57
A16U C123U | 0.19
U14G G58A A95U G117C | -5.13
U14C A16U C88U C101A U129G | -5.73
C15U G44U C85A C94U G117C A118U | -4.78
C15A A41C | -3.59
